19 molecules from patent US20210284709A1 (JUNO THERAPEUTICS, published 2021) can be followed below.

The labels stand for the following.
B1: TCR 44 (codon-optimized, cysteine-modified) (TCR, V domains shown)
V domain 1: GQNIDQPTEMTATEGAIVQINCTYQTSGFNGLFWYQQHAGEAPTFLSYNVLDGLEEKGRFSSFLSRSKGYSYLLLKELQMKDSASYLCAQYSGGYQKVTFGTGTKLQVIP
V domain 2: DSGVTQTPKHLITATGQRVTLRCSPRSGDLSVYWYQQSLDQGLQFLIQYYNGEERAKGNILERFSAQQFPDLHSELNLSSLELGDSALYFCASSGTPDTQYFGPGTRLTVLE
B2: TCR 37 (codon-optimized, cysteine-modified) (TCR, V domains shown)
V domain 1: ELKVEQNPLFLSMQEGKNYTIYCNYSTTSDRLYWYRQDPGKSLESLFVLLSNGAVKQEGRLMASLDTKARLSTLHITAAVHDLSATYFCAGYSGAGSYQLTFGKGTKLSVIP
V domain 2: GAGVSQSPRYKVAKRGQDVALRCDPISGHVSLFWYQQALGQGPEFLTYFQNEAQLDKSGLPSDRFFAERPEGSVSTLKIQRTQQEDSAVYLCASSLLLGAYGYTFGSGTRLTVVE
B3: TCR 43 (codon-optimized, cysteine-modified) (TCR, V domains shown)
V domain 1: QKEVEQNSGPLSVPEGAIASLNCTYSDRGSQSFFWYRQYSGKSPELIMFIYSNGDKEDGRFTAQLNKASQYVSLLIRDSQPSDSATYLCAVNVPTSGTYKYIFGTGTRLKVLA
V domain 2: EPEVTQTPSHQVTQMGQEVILRCVPISNHLYFYWYRQILGQKVEFLVSFYNNEISEKSEIFDDQFSVERPDGSNFTLKIRSTKLEDSAMYFCASTPRDSYEQYFGPGTRLTVTE
B4: TCR 48 (codon-optimized, cysteine-modified) (TCR, V domains shown)
V domain 1: QKEVEQDPGPLSVPEGAIVSLNCTYSNSAFQYFMWYRQYSRKGPELLMYTYSSGNKEDGRFTAQVDKSSKYISLFIRDSQPSDSATYLCAMRIQGAQKLVFGQGTRLTINP
V domain 2: EPEVTQTPSHQVTQMGQEVILRCVPISNHLYFYWYRQILGQKVEFLVSFYNNEISEKSEIFDDQFSVERPDGSNFTLKIRSTKLEDSAMYFCASTGRVSYEQYFGPGTRLTVTE
B5: TCR 51 (codon-optimized, cysteine-modified) (TCR, V domains shown)
V domain 1: QKEVEQNSGPLSVPEGAIASLNCTYSDRGSQSFFWYRQYSGKSPELIMSIYSNGDKEDGRFTAQLNKASQYVSLLIRDSQPSDSATYLCAVNMRGGGSNYKLTFGKGTLLTVNP
V domain 2: EPEVTQTPSHQVTQMGQEVILRCVPISNHLYFYWYRQILGQKVEFLVSFYNNEISEKSEIFDDQFSVERPDGSNFTLKIRSTKLEDSAMYFCAIASRVSYEQYFGPGTRLTVTE
B6: TCR 47 (codon-optimized, cysteine-modified) (TCR, V domains shown)
V domain 1: QKEVEQNSGPLSVPEGAIASLNCTYSDRGSQSFFWYRQYSGKSPELIMFIYSNGDKEDGRFTAQLNKASQYVSLLIRDSQPSDSATYLCAVNLLSGSARQLTFGSGTQLTVLP
V domain 2: EPEVTQTPSHQVTQMGQEVILRCVPISNHLYFYWYRQILGQKVEFLVSFYNNEISEKSEIFDDQFSVERPDGSNFTLKIRSTKLEDSAMYFCAMTGRTTYEQYFGPGTRLTVTE
B7: TCR 40 (codon-optimized, cysteine-modified) (TCR, V domains shown)
V domain 1: GQQVMQIPQYQHVQEGEDFTTYCNSSTTLSNIQWYKQRPGGHPVFLIQLVKSGEVKKQKRLTFQFGEAKKNSSLHITATQTTDVGTYFCAGRNNFNKFYFGSGTKLNVKP
V domain 2: EPEVTQTPSHQVTQMGQEVILRCVPISNHLYFYWYRQILGQKVEFLVSFYNNEISEKSEIFDDQFSVERPDGSNFTLKIRSTKLEDSAMYFCAITARSSYEQYFGPGTRLTVTE
B8: TCR 36 (codon-optimized, cysteine-modified) (TCR, V domains shown)
V domain 1: RKEVEQDPGPFNVPEGATVAFNCTYSNSASQSFFWYRQDCRKEPKLLMSVYSSGNEDGRFTAQLNRASQYISLLIRDSKLSDSATYLCVVNRDNYGQNFVFGPGTRLSVLP
V domain 2: EPEVTQTPSHQVTQMGQEVILRCVPISNHLYFYWYRQILGQKVEFLVSFYNNEISEKSEIFDDQFSVERPDGSNFTLKIRSTKLEDSAMYFCAMTGRSNYEQYFGPGTRLTVTE
B9: TCR 49 (codon-optimized, cysteine-modified) (TCR, V domains shown)
V domain 1: QKEVEQNSGPLSVPEGAIASLNCTYSDRGSQSFFWYRQYSGKSPELIMFIYSNGDKEDGRFTAQLNKASQYVSLLIRDSQPSDSATYLCAVNIGTSGTYKYIFGTGTRLKVLA
V domain 2: EPEVTQTPSHQVTQMGQEVILRCVPISNHLYFYWYRQILGQKVEFLVSFYNNEISEKSEIFDDQFSVERPDGSNFTLKIRSTKLEDSAMYFCASTPRYSYEQYFGPGTRLTVTE
B10: TCR 42 (codon-optimized, cysteine-modified) (TCR, V domains shown)
V domain 1: GQQVMQIPQYQHVQEGEDFTTYCNSSTTLSNIQWYKQRPGGHPVFLIQLVKSGEVKKQKRLTFQFGEAKKNSSLHITATQTTDVGTYFCAGPDNFNKFYFGSGTKLNVKP
V domain 2: EPEVTQTPSHQVTQMGQEVILRCVPISNHLYFYWYRQILGQKVEFLVSFYNNEISEKSEIFDDQFSVERPDGSNFTLKIRSTKLEDSAMYFCAKTSRSSYEQYFGPGTRLTVTE
B11: TCR 33 (codon-optimized, cysteine-modified) (TCR, V domains shown)
V domain 1: QKEVEQNSGPLSVPEGAIASLNCTYSDRGSQSFFWYRQYSGKSPELIMFIYSNGDKEDGRFTAQLNKASQYVSLLIRDSQPSDSATYLCAVNAHHTGGFKTIFGAGTRLFVKA
V domain 2: EPEVTQTPSHQVTQMGQEVILRCVPISNHLYFYWYRQILGQKVEFLVSFYNNEISEKSEIFDDQFSVERPDGSNFTLKIRSTKLEDSAMYFCASTPRDTYEQYFGPGTRLTVTE
B12: TCR 39 (codon-optimized, cysteine-modified) (TCR, V domains shown)
V domain 1: GQQLNQSPQSMFIQEGEDVSMNCTSSSIFNTWLWYKQEPGEGPVLLIALYKAGELTSNGRLTAQFGITRKDSFLNISASIPSDVGIYFCAGYSSSNDYKLSFGAGTTVTVRA
V domain 2: EPEVTQTPSHQVTQMGQEVILRCVPISNHLYFYWYRQILGQKVEFLVSFYNNEISEKSEIFDDQFSVERPDGSNFTLKIRSTKLEDSAMYFCASTPRDRGKEAFFGQGTRLTVVE
B13: TCR 53 (codon-optimized, cysteine-modified) (TCR, V domains shown)
V domain 1: AQSVAQPEDQVNVAEGNPLTVKCTYSVSGNPYLFWYVQYPNRGLQFLLKYITGDNLVKGSYGFEAEFNKSQTSFHLKKPSALVSDSALYFCAVRDFGSGTYKYIFG
V domain 2: GAGVSQSPRYKVTKRGQDVALRCDPISGHVSLYWYRQALGQGPEFLTYFNYEAQQDKSGLPNDRFSAERPEGSISTLTIQRTEQRDSAMYRCASSGSGTSGYNEQFFGPGTRLTVLE
B14: TCR 35 (codon-optimized, cysteine-modified) (TCR, V domains shown)
V domain 1: KDQVFQPSTVASSEGAVVEIFCNHSVSNAYNFFWYLHFPGCAPRLLVKGSKPSQQGRYNMTYERFSSSLLILQVREADAAVYYCAVAGDYKLSFGAGTTVTVRA
V domain 2: DSGVTQTPKHLITATGQRVTLRCSPRSGDLSVYWYQQSLDQGLQFLIQYYNGEERAKGNILERFSAQQFPDLHSELNLSSLELGDSALYFCASTTSGDSSYNEQFFGPGTRLTVLE
B15: TCR 41 (codon-optimized, cysteine-modified) (TCR, V domains shown)
V domain 1: RKEVEQDPGPFNVPEGATVAFNCTYSNSASQSFFWYRQDCRKEPKLLMSVYSSGNEDGRFTAQLNRASQYISLLIRDSKLSDSATYLCVVTFALTGGFKTIFGAGTRLFVKA
V domain 2: EPEVTQTPSHQVTQMGQEVILRCVPISNHLYFYWYRQILGQKVEFLVSFYNNEISEKSEIFDDQFSVERPDGSNFTLKIRSTKLEDSAMYFCASNPRDRVSYEQYFGPGTRLTVTE
B16: TCR 46 (codon-optimized, cysteine-modified) (TCR, V domains shown)
V domain 1: AQSVTQLDSQVPVFEEAPVELRCNYSSSVSVYLFWYVQYPNQGLQLLLKYLSGSTLVKGINGFEAEFNKSQTSFHLRKPSVHISDTAEYFCAVSPSSGTYKYIFGTGTRLKVLA
V domain 2: GAGVSQTPSNKVTEKGKYVELRCDPISGHTALYWYRQSLGQGPEFLIYFQGTGAADDSGLPNDRFFAVRPEGSVSTLKIQRTERGDSAVYLCASSLYLGGSETQYFGPGTRLLVLE
B17: TCR 45 (codon-optimized, cysteine-modified) (TCR, V domains shown)
V domain 1: GQQVMQIPQYQHVQEGEDFTTYCNSSTTLSNIQWYKQRPGGHPVFLIQLVKSGEVKKQKRLTFQFGEAKKNSSLHITATQTTDVGTYFCAGSSGAGSYQLTFGKGTKLSVIP
V domain 2: GAGVSQSPSNKVTEKGKDVELRCDPISGHTALYWYRQRLGQGLEFLIYFQGNSAPDKSGLPSDRFSAERTGESVSTLTIQRTQQEDSAVYLCASSLYLGTTGELFFGEGSRLTVLE
B18: TCR 34 (codon-optimized, cysteine-modified) (TCR, V domains shown)
V domain 1: ELKVEQNPLFLSMQEGKNYTIYCNYSTTSDRLYWYRQDPGKSLESLFVLLSNGAVKQEGRLMASLDTKARLSTLHITAAVHDLSATYFCAVSGTYKYIFGTGTRLKVLA
V domain 2: ETGVTQSPTHLIKTRGQQVTLRCSSQSGHNTVSWYQQALGQGPQFIFQYYREEENGRGNFPPRFSGLQFPNYSSELNVNALELDDSALYLCASSSYAGSYEQYFGPGTRLTVTE
B19: TCR 50 (codon-optimized, cysteine-modified) (TCR, V domains shown)
V domain 1: GEDVEQSLFLSVREGDSSVINCTYTDSSSTYLYWYKQEPGAGLQLLTYIFSNMDMKQDQRLTVLLNKKDKHLSLRIADTQTGDSAIYFCAESPPGTYKYIFGTGTRLKVLA
V domain 2: DSGVTQTPKHLITATGQRVTLRCSPRSGDLSVYWYQQSLDQGLQFLIHYYNGEERAKGNILERFSAQQFPDLHSELNLSSLELGDSALYFCASSATRDAYGYTFGSGTRLTVVE
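Also: cells transiently transfected with TCR-encoding plasmids, analysed 48 h afterwards by co-staining with HLA-A*02:01 peptide tetramer and anti-CD8 antibody.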

For the assay, the target named is T1, HLA-A2/E7(11-19) tetramer (human; HPV 16).
T1 construct: also called E7(11-19) peptide-MHC tetramer; E7 tet
Description: flow cytometry, tetramer + anti-CD8; transfected mix of CD8- and CD8+ Jurkat-derived cells. (In general: In flow cytometry, cells or beads pass a laser one at a time.)
Description: For transfection, the CD4+ and CD4+/CD8+ cell mixtures were transiently transfected with TCR-encoding plasmids and 48 hours after transfection, cells were assessed by flow cytometry for (1) binding of the target peptide in the context of an MHC molecule (HLA:A02:01) by staining with an E6(29-38) peptide- or an E7(11-19) peptide-MHC tetramer reagent, and/or (2) CD8+ independent binding of the target by co-staining the tetramer-labeled cells with an anti-CD8 antibody.
Take B1: the “% cells E7 tet+/CD8+ quadrant” value came out at 2.96% and the “% cells E7 tet+/CD8- quadrant” value is 1.43%.
The matching figures for B2: 25.5% and 19.5%.
The matching figures for B3: 3.82% and 1.88%.
Regarding B4, the “% cells E7 tet+/CD8+ quadrant” value came to 5.36% and the “% cells E7 tet+/CD8- quadrant” value worked out at 1.29%.
With B5, the “% cells E7 tet+/CD8+ quadrant” value worked out at 5.7% and the “% cells E7 tet+/CD8- quadrant” value was 2.06%.
For the molecule B6, the “% cells E7 tet+/CD8+ quadrant” value was 1.98% and the “% cells E7 tet+/CD8- quadrant” value turned out to be 0.71%.
On the same counts, the results for B7 are 7.84% and 1.37%.
The matching figures for B8: 23.4% and 16.7%.
Turning to B9, the “% cells E7 tet+/CD8+ quadrant” value came to 5.54% and the “% cells E7 tet+/CD8- quadrant” value was determined as 3.06%.
As to B10, the “% cells E7 tet+/CD8+ quadrant” value is 1.21% and the “% cells E7 tet+/CD8- quadrant” value amounted to 1.65%.
With B11, the “% cells E7 tet+/CD8+ quadrant” value came to 22.6% and the “% cells E7 tet+/CD8- quadrant” value is 14%.
B12: the “% cells E7 tet+/CD8+ quadrant” value came to 12.3% and the “% cells E7 tet+/CD8- quadrant” value was found to be 2.61%.
With B13, the “% cells E7 tet+/CD8+ quadrant” value amounted to 3.35% and the “% cells E7 tet+/CD8- quadrant” value is 0.43%.
The matching figures for B14: 14.5% and 7.18%.
Turning to B15, the “% cells E7 tet+/CD8+ quadrant” value stood at 6.07% and the “% cells E7 tet+/CD8- quadrant” value was found to be 2.41%.
On to B16, for which the “% cells E7 tet+/CD8+ quadrant” value came to 1.27% and the “% cells E7 tet+/CD8- quadrant” value is 1.21%.
B17: the “% cells E7 tet+/CD8+ quadrant” value was 22.4% and the “% cells E7 tet+/CD8- quadrant” value was 16.9%.
The matching figures for B18: 26.3% and 26%.
As to B19, the “% cells E7 tet+/CD8+ quadrant” value came to 3.28% and the “% cells E7 tet+/CD8- quadrant” value is 0.25%.
